In paper PMC12748774:

Columns and labels:
[1] = target: WNV CC_FLE sE (G5C/G102C), dimer (West Nile virus); experiment: cryo-EM structure
[2] = target: WNV CC_FLE sE (G5C/G102C), dimer (West Nile virus); experiment: SEC; purified sE proteins on a Superose 6 column
[3] = target: ZIKV CC_Core sE (A264C), disulfide-linked dimer (Zika virus (Brazilian strain SPH2015)); experiment: SEC
[4] = target: ZIKV CC_Core sE (A264C), disulfide-linked dimer (Zika virus (Brazilian strain SPH2015)); experiment: SDS-PAGE with and without the reducing reagent DTT
[5] = target: ZIKV CC_Core sE (A264C), disulfide-linked dimer (Zika virus (Brazilian Zika SPH2015 strain)); experiment: cryo-EM structure
[6] = target: ZIKV CC_Core sE (A264C), disulfide-linked dimer (Zika virus (Brazilian Zika SPH2015 strain)); experiment: SEC; purified sE proteins on a Superose 6 column
[7] = target: ZIKV CC_FLE sE (G5C/G102C), disulfide-linked dimer (Zika virus (Brazilian strain SPH2015)); experiment: SEC
[8] = target: ZIKV CC_FLE sE (G5C/G102C), disulfide-linked dimer (Zika virus (Brazilian strain SPH2015)); experiment: SDS-PAGE with and without the reducing reagent DTT
[9] = target: ZIKV CC_FLE sE (G5C/G102C), disulfide-linked dimer (Zika virus (Brazilian Zika SPH2015 strain)); experiment: cryo-EM structure
[10] = target: ZIKV CC_FLE sE (G5C/G102C), disulfide-linked dimer (Zika virus (Brazilian Zika SPH2015 strain)); experiment: SEC; purified sE proteins on a Superose 6 column
[11] = target: JEV CC_FLE sE (G5C/G102C), disulfide-linked dimer (Japanese encephalitis virus (SA-14-14-2 strain)); experiment: cryo-EM structure
[12] = target: JEV CC_FLE sE (G5C/G102C), disulfide-linked dimer (Japanese encephalitis virus (SA-14-14-2 strain)); experiment: SEC; purified sE proteins on a Superose 6 column

Measured: stoichiometry N

WNV CC_FLE sE (G5C/G102C), dimer (domain or fragment)
2: [1] | [2]

ZIKV CC_Core sE (A264C), disulfide-linked dimer (domain or fragment)
2: [3] | [4] | [5] | [6]

ZIKV CC_FLE sE (G5C/G102C), disulfide-linked dimer (domain or fragment)
2: [7] | [8] | [9] | [10]

JEV CC_FLE sE (G5C/G102C), disulfide-linked dimer (domain or fragment)
2: [11] | [12]
